Test: yeast display, Sf9 membrane polyspecificity reagent, FACS + sequencing; frameworks hold sequencing errors
Outline: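 Nanobodies came from a synthetic yeast display library in Saccharomyces cerevisiae BJ5465, induced with galactose for 36–48 hours and stained for 1 hour at 4 °C with 10% biotinylated, detergent-solubilized Sf9 membrane reagent. Cells were enriched on streptavidin microbeads and then FACS-sorted, with low and high (top ~1%) gates set on anti-HA fluorescence for expression and streptavidin fluorescence for reagent binding. Each polyreactivity label reflects the gate a clone came from. Genes were amplified by colony PCR, sequenced by MiSeq 2 × 250 and filtered by CDR length.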

Row | Sequence | polyreactivity (PSR sort gate)
1 | QVQLVESGGGLVHAGGSLRLSCAASGSNFRYNAMGWYRQAPGKEREFYADSVKGRFTISRDNAKKTVYLQMNSLKPEDTAVYYCNATWYLWYWHDMDYWGQGTQGTVSS | low polyreactivity
2 | QVQLVESGGGLVHAGGSLRLSCAASGSNSNYYGMGWYRQAPGKERELVAAITWGGGRTNYADSVKGRFTISRDNAKNTVYLQMNSLKPEDTAVYYCAKVSVTHRYGAGGDYWGQGTQVTVSS | low polyreactivity
3 | QVQLVESGGGLVHAGGSLRLSCAASGSTFGYYAMGWYRQAPGTERELVADINWNGGSTNYADSVKGRFTISRDTEKKTVYLQMNSLKPEDTAVYFCAKGLRPYRFYYWGQGTQVTVSS | high polyreactivity
4 | QVQLVESGGGLVHAGGSLRLSCAASGSTFIYNAMGWDRQAPGKERELVAAITWNGGSTYYADSVKGRFTLSRDIAKNTVYLQMISLNPEDTAVYYCAVDKGSQPHYDYWGQVTQVTVSS | low polyreactivity
5 | QVQLVESGGGLVHAGGSLRLSCAASGSTFSRNTMGWYRQAPGKERELVAAITKSAVSTYNADSVKGRFTISRDNAKNTVYLQMNSLKPEDTAVYYCAKVYRTSTSKAYDYWGQGTQVTVSS | high polyreactivity
6 | QVQLVESGGGLVHAGGSLRLSCAASGSTFSYNAMGWYRQAHGKERELVAAITSSGSSTYYADSVKGRFTISRYNAKNTVYLQMNSLKPEDTAVYYCKAEVLFVAGQVQRNSGDYWGQGTQVSVSS | low polyreactivity
7 | QVQLVESGGGLVHAGGSLRLSCAASGSTFTPNAMGWYRQAPRKERDLVAAIRGLNGRTYYADSVKGRITISRDNAKNTVYLQMNSLKPEDTAVYYCAAGGYSNYFAWHDYWGQCTQVTVSS | low polyreactivity
8 | QVQLVESGGGLVHAGGSLRLSCAASGSTFYENAMGWYRQAPGKERELVAAITWSGGRTYYADSVKGRFTISRDNAKNTVYLQMNSLKPEDTAVYYCAAGLFVGFDYWGQGTQVTVSS | high polyreactivity
9 | QVQLVESGGGLVHAGGSLRLSCAASGSTFYSNTMGWYRQAPGKERELVAAIDTSGDSTNYADSVKGRFTISRDNAKNTVYLQMNSLKPEDTAVYYCNRRVSDRAFPFNYWGQGTQVTVSS | low polyreactivity
10 | QVQLVESGGGLVHAGGSLRLSCAASGSTLKYYAMGWYRQAPGKERELVAAITSGSSTYYADSVKGRFTISRDNAKNTVYLQMNSLKPEDTAVYYCAADYYTGYGRYYSTRFYYWGQGTQVTVSS | high polyreactivity
11 | QVQLVESGGGLVHAGGSLRLSCAASGSTYIFYAMGWYRQAPGKERELVPAITGGGSTYYADSVKGRFTISRDNAKNTVYLQMNSLKPEDTAVFYCARAEPYYSKSFSLGGYGYWGQGTKVTVSS | low polyreactivity
12 | QVQLVESGGGLVHAGGSLRLSCAAYGFIFRYYAMGRYRQAPGKEMELVATISSGGRTYYADSVKGRFTISRDNAKNTVYLQMNSLKPEDTAVYYCAKDYSWASYNHDYWGQGTQVTVSS | low polyreactivity
13 | QVQLVESGGGLVHAGGSLRLSCAAYGSTFVRNAMGCYRQAPGKERELVAAITSRGGSTYYADSVKGRFTISRDNAKNTVYLQMNSLKPEDTAVYYCAARFGVKRGQYDYWGQGTQVTVSS | high polyreactivity
14 | QVQLVESGGGLVHAGGSLRLSCASSGRIFQYNTMGWYRQAPGKERELVAGISSGGSTNYADSVKGRFTISRDNAKNTVYLQMNSLKPEDTAVYYCAARAKRYNVRFDYWGQGTQVTVSS | high polyreactivity
15 | QVQLVESGGGLVHAGGSLRLSCASSGSTFRPYAMGCYRQAPGKERELVAAIRKIGGRTYYADSVKGRFTISRDNANNTVYLQMNSLKPEDTAVYNCNKRIGGGVHAYNYWGQGTQVSVSS | low polyreactivity
16 | QVQLVESGGGLVHAGGSLRLSCATSGRTFKYNAMGWYRQAPGKEREFVAAISSRGGSTTYYADSVTGRFTISRDNAKNTVYLQMKSLKPEDTAVYYCADRTPPPASRSRVYYWGQCTQVTVSS | high polyreactivity
17 | QVQLVESGGGLVHAGGSLRLSCDASGLKFRAYDMGRYRQAPGKERELVAAITSSSGSTYYADSVKGRFTISRDNAKNTVYLQMNSLKPEDTSVYYCNAYSTFGWYDYWGQGTQVTVSS | low polyreactivity
18 | QVQLVESGGGLVHAGGSLRLSCSASGIIFYRYAMGWYRQAPGKERELVAAITWSGVSTSYADSVKGRFTISRDNAKNTVYLKMNSLKPEDTAVYYCNIDPGTLFGDMDSWGQGNQVTVSS | low polyreactivity
19 | QVQLVESGGGLVHAGGSLRLSCSASGRTFRHYAMGWYRQAPGKEREMVAVISWRGTGTYYADSVKGRFTISRDNAKNTVYLQMNSLKPEDTAVYYCATVWGLGYRMNYWGQGTQVTVSS | high polyreactivity
20 | QVQLVESGGGLVHAGGSLRLSCSASGSILKSYAMGWYRQAPGKERDLVAAITYRDGSTYYADSVKGRFTISRDTAKNTVYLQMISLKPEDTAVYYCASEPYWWNVFYPGYNYWGQGNQVTVSS | high polyreactivity
21 | QVQLVESGGGLVHAGGSLSLICAASGITFDVNAMGWYRQAPGKERELVAAITAGGNTYYADSVKGRFTISRDNAKNTVYLQMNSLKPEDTAVYYCAAVSTSLYWAGYDYWGQGTKVTVSS | low polyreactivity
22 | QVQLVESGGGLVHAGRSLRLSCAASGFIFVRNAMGWYRQAPGKERELVAAITRSGGSTSYADSVKGRFTISRDNEKNTVYLQMNSLKPEDTAVYYCAAQYGYWGQGTQVTVSS | high polyreactivity
